The labels stand for the following.
T1: S114A human B7-H4 (full-length membrane construct, glycosylation site N112-S114 removed) (human, UniProt Q7Z7D3 29-282)
T1 construct: Transiently transfected into 293 cells; also called mutated S114A human B7-H4
T1 sequence: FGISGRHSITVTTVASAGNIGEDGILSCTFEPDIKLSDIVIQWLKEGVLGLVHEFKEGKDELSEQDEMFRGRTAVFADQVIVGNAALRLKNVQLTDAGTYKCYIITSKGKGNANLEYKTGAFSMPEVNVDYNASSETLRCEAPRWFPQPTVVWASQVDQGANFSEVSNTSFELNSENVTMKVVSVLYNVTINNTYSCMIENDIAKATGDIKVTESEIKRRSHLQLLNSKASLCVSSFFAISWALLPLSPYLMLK

T2: irrelevant (Ig-V)-B7-H4 (Ig-C; D158-G236 including TM/CD D237-K282) chimeric membrane protein (construct-88B) (human, UniProt Q7Z7D3 158-282)
T2 construct: Transiently expressed on 293 cells; also called B7-H4 Ig-C domain; not shown: irrelevant Ig-V domain; an N-terminal or cytoplasmic tag was attached but is not described
T2 sequence: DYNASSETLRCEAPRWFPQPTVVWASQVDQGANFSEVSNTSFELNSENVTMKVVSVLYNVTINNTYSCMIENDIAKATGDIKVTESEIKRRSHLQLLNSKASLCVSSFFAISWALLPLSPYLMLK

B1: chimeric antibody ch22C10 (antibody, V domains shown)
VH: QVQLQQPGAELVKPGTSVKLSCKASGYTFTNFWIHWVIQRPGQGLEWIGEIDPSDSYTNYNQKFKGKATLTVDKSSNTAYMQLSSLTSEDSAVYYCSREITTVDYWGQGTTLTVSS
VL: QIVLTQSPTIMSASPGEKVTLTCSATSSISYMHWYQQKPGTSPKGWIYDTSKLAHGVPARFSGSGSGTSYSLTISSMEAEDAATYYCHQRRSYPFTFGSGTKLEIK
notes: also called ch2210; parental 22C10 antibody
B2: ch1D11, slightly modified version with light chain C43G (antibody, human IgG1, V domains shown)
VH: QVQLQQSGAELVRPGTSVKMSCKASGYTFTSYWIGWAKQRPGHGFEWIGDIYPGGGYTNYNEKFKGKATLTADKSSSTAYMQFSSLTSEDSAIYYCARLDGSSYRGAMDSWGQGTSITVSS
VL: DIQMTQSPSSLSASLGGKVTITCKASQGFNKYVAWYQHKPGQGPRLLIHYTSTLQPGIPARFSGSGSGRDYSFSISNLEPEDSATYFCLQYGNLLYAFGGGTKLEIKR
notes: Human IgG1 / kappa chimeric; also called ch1D11 (C43G light chain)
B3: chimeric antibody ch9B9 (antibody, V domains shown)
VH: QVQLQQSGAELMKPGASVKMSCKATGYTFSSYWIEWVKQRPGHGLEWIGEILPGTSITTYNAKFKVKATFTADTSSNTAYMQLSSLTSEDSAVYFCARYYFGSSSFYFDYWGQGTSLTVSS
VL: QAVVTQESALTTSPGDTVTLTCRSSTGAVTTSNYANWVQEKPDHLFTGLIGGTNNRVPGVPARFSGSLIGDKAALTITGAQTEDEAMYFCALWYNNHWVFGGGTKLE
B4: chimeric antibody ch32D6 (antibody, V domains shown)
VH: EVQLQQSGPDLVKPGASVKISCKASGYSFTGYYIHWMKQSHGKSLEWIGRVNPNNGDPIYNQKFRGKAILTVDQSSNTAYMELRSLTSEASAVYYCARVLFYYGSPFAYWGQGTLVTVSA
VL: DIVMTQSPSSLIVTAGEKVTMSCRSSQSLFDSGSQRNYLTWFHQKPGRPPKLLIYWASTRESGVPDRFTGSGSGTDFTLTISSVQTEDLAVYFCQNDYSFPFTFGSGTKLEEK

The first assay concerns the target T1, S114A human B7-H4 (full-length membrane …). Briefly: FACS on 293 cells transfected with S114A human B7-H4, against isotype control. From the text:
The B7-H4 (Ig-V) domain contains a single N-linked glycosylation site (N112-S114), and to determine whether glycosylation influences binding of the antibodies to B7-H4, S114 was substituted with alanine using standard site-specific mutagenesis to prevent glycosylation in the full-length human B7-H4 membrane construct.
Turning to B1, the “fold binding over isotype control” value came to 100 fold.

Consider B2, for which the “fold binding over isotype control” value is 100 fold.

Take B3: the “fold binding over isotype control” value turned out to be 100 fold.

As to B4, the “fold binding over isotype control” value is 100 fold.

Another assay has as its target T2, irrelevant (Ig-V)-B7-H4 (Ig-C; …). Briefly: FACS on 293 cells transiently transfected with construct-88B, dye-labeled antibody. From the text: To determine whether the B7-H4 antibodies bind to either the Ig-V or Ig-C domain of B7-H4, chimeric Ig domain molecules were engineered that contain either a B7-H4 (IgV; G28-F150 including spacer S151-V157)—irrelevant (Ig-C) (construct-88) or an irrelevant (Ig-V)-B7-H4 (Ig-C; D158-G236 including TM/CD D237-K282) (construct-88B) membrane protein using standard molecular cloning methods. N-terminal or cytoplasmic tags were attached to confirm that 293 cells transfected with these constructs express protein on the cell membrane (data not shown). Briefly, 293 cells were transiently transfected with constructs 88 & 88B using polyfect. After 48 hours, the cells were stained with 10 μg/ml of Dylight-488 or −650 labeled ch9B9, ch1D11, ch22C10 or ch32D6 for 30-40 minutes at 4° C., washed and analyzed on a BD FACS calibur.
Consider B1, for which the binding result is reported as “no binding (tested: 10 µg/ml)”.

As for B2, the binding result was “no binding (tested: 10 µg/ml)”.

B3: the binding result is listed as “no binding (tested: 10 µg/ml)”.

Turning to B4, the binding result was “no binding (tested: 10 µg/ml)”.
